From patent US20250263490A1 (VIB VZW, published 2025)
Values belong to the binder of their own block, whether it stands above or below them.

Key:
[1] = molecular target: T1, recombinant human domain 1-3His6 of the cation-independent mannose-6-phosphate receptor (human, UniProt P11717 41-467); experiment: BLI exp 2, dissoc pH not printed (between 6 and 5, presumably 5.5)
T1 construct: Biotinylated (NHS-PEG4-biotin) for BLI; Glycosylated; also called hDom1-3His6; hCI-M6PRD1-D3
Protocol: For each of the 11 anti-CI-M6PR VHHs, a biolayer interferometry (BLI) experiment was performed in which the hDom₁₋₃His₆ was biotinylated and coupled to streptavidin biosensor tips. Afterwards, the tips were incubated with serially diluted VHHs during the association phase and dissociation was performed at pH 7.4. Similarly, dissociation was performed at pH 7.0, pH 6.0 and pH 5.0 as well after regeneration of the biosensor tips. […] The anti-CI-M6PR antibody (clone 2G11) and GBP were used as positive and negative controls, respectively.
Analysis of the binding kinetics was performed using an Octet Red96 (FortéBio) device with Streptavidin SA Biosensor tips (VWR, 733-2145). To this end, 1 mL of hCI-M6PR_D1-D3 (0.5 mg/mL in 50 mM MES, 150 mM NaCl, pH 6.5) was incubated at room temperature for 30 minutes with a two-fold molar excesses of EZ-Link™ NHS-PEG₄-Biotin (Thermo Fischer, A39259) and NaHCO₃ (100 mM, pH 8.3). Biotinylated hCIMPR_D1-D3 was purified using a Zeba spin desalting column (Thermo Fischer, 89890) and protein concentration was calculated by measuring the absorbance at 280 nm (extinction coefficient 50320 M¹ cm⁻¹). Two-fold biotin-labelled antigen was loaded on the tips (2.5 μg/mL) and subsequently dipped into a particular anti-CI-M6PR VHH-containing solution (ranging from 0-100 nM). […]

[2] = molecular target: T2, human cation-independent mannose-6-phosphate receptor, native, on cells (human, UniProt P11717 41-2491); experiment: flow cytometry on HepG2 cells: FLAG3-tagged VHH 30 min on ice, M2 anti-Flag mAb, PE anti-mouse F(ab')2 [upper graph]
T2 construct: whole, on cells; also called native CI-M6PR; cell-surface hCI-M6PR
From the text: Synthetic DNA fragments encoding VHHs were ordered (IDT, Leuven, Belgium) and subcloned into an E. coli expression vector under control of an IPTG-inducible lac promoter, in frame with N-terminal PelB signal peptide (which directs the recombinant proteins to the periplasmic compartment) and C-terminal FLAG3 and His6 tags. […] VHH proteins were purified from these clones by means of IMAC chromatography followed by desalting according to well established procedures¹⁰⁶. Cells used herein were recovered using cell dissociation non-enzymatic solution (Sigma Aldrich, cat. #C5914-100ML) and resuspended to a final concentration of 1,000,000 cells/mL in FACS buffer. Cells were incubated with different concentrations of purified FLAG3-tagged VHHs for 30 minutes on ice with shaking, followed by washing and incubation with mouse M2 anti-Flag mAb (Sigma Aldrich, cat. #F-1804) in FACS buffer for 30 min on ice with shaking, followed again by washing. […] Flow cytometry and analysis were done on an Attune NxT Flow Cytometer (Thermo Fisher Scientific).
Moreover, cross-reactivity to mouse CI-M6PR was analyzed, in view of the amino acid homology between mouse and human being overall about 80% identity, but for domain 1-3 of CI-M6PR just about 75% identity.

koff [1]: 0.00062 s⁻¹ | kon [1]: 2.1e+06 M⁻¹ s⁻¹
B1: anti-CI-M6PR VHH5 (VHH)
VHH: QVQLQESGGGLVQAGGSLKLSCAAAGRTFSRLAMGWFRQAPGKEREFVAAISENGDSIHYSDSVKGRFAVSRDNAKNTVYLQMNSLKPEDTAIYYCAADRAAYYCSGSGCYPSRAPAAASYDYWGQGTQVTVSS
notes: His6-tagged; made in Pichia pastoris, later also in E. coli WK6

EC50 (read off the curve) [2]: ~2 nM
B2: anti-CI-M6PR VHH8 (VHH)
VHH: QVQLQESGGGLVQAGGSLRLSCEASGRTFNTYNWGWFRQAPGKEREFVAAIRWSSSKTSYADSVKGRFTISRDNAKNTIYLQMNSLKPEDTAVYYCAASIVDFTTNPSHFGSWGQGTQVTVSS
notes: His6-tagged (Pichia pastoris)
